Reference: US20230312686A1 (Bristol-Myers Squibb, published 2023)

How the values were obtained:
[1] = target: T1, Human glypican-3 on cells (Huh7, Hep3B, H446, Hep3B xenograft tissue) (human, UniProt P51654 25-554); test: cell-based or functional assay
[2] = target: T2, Recombinant human glypican-3 (aa 1-559), His-tagged, R&D Systems (human, UniProt P51654 25-559); test: SPR, Biacore T100, 37 C, GPC3 immobilised, DAR1 AdxDC
T2 construct: also called huGPC3; Hu GPC3-His
Description: (§1) For off-rate measurements, single 200 nM adnectin/AdxDC concentrations were injected using identical conditions. One 30s injection of 10 mM glycine pH 1.7 was used to remove bound adnectin and regenerate the GPC3 surfaces between assay cycles.
(§2) Rate constants kₐ (kₒₙ) and kd (koff) were derived from reference-subtracted sensorgrams fit to a 1:1 binding model in Biacore T100 Evaluation Software v2.0.4 (GE Healthcare). The affinity constant, KD was calculated from the ratio of rate constants kd/kₐ.

[3] = target: T3, Recombinant murine glypican-3 (aa 25-557), R&D Systems (murine, UniProt Q8CFZ4 25-557); test: as above
T3 construct: also called muGPC3; Mu GPC3-His
T3 sequence (Q8CFZ4 25-557 limits assumed, form in doubt): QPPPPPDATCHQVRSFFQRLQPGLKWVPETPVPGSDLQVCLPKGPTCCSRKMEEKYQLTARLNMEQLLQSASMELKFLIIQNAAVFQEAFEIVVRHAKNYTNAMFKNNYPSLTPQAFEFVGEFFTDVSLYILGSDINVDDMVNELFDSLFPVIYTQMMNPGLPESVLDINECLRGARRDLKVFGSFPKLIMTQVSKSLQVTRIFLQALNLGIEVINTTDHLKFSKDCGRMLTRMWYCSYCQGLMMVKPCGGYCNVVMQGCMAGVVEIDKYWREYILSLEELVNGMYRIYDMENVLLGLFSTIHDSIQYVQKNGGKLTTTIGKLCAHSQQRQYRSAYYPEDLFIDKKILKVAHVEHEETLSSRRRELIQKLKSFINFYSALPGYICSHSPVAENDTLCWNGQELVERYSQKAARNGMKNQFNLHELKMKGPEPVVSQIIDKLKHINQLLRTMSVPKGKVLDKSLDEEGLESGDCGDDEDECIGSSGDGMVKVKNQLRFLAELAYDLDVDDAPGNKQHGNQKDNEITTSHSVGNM
Description: as §1, §2

[4] = target: T2, Recombinant human glypican-3 (aa …); test: SPR KD, 37 C, Biacore T100
Description: as §1, §2

[5] = target: T1, Human glypican-3 on cells (Huh7, Hep3B, …); test: flow cytometry on Hep3B cells, His Tag PE antibody
Description: GPC3 AdxDC were evaluated by flow cytometry for binding to human Hep3B hepatocellular carcinoma cells grown in MEM with 10% FBS, and H446 small cell lung carcinoma cells grown in RPMI with 10% FBS. Cells were harvested using Cellstripper, a non-enzymatic cell dissociation solution from Mediatch (Corning: Manassas, VA 20109), Cat. #25-056-CL. Tumor cells (25,000/reaction) were suspended in FACS buffer (PBS+5% FBS+0.01% NaN₃) and mixed with a serial dilution of AdxDC for 1 hour on ice. Cells were washed three times with FACS buffer, and bound AdxDC was detected with His Tag PE-conjugated Antibody from R&D System, cat #IC050P, and read on a flow cytometer.

[6] = target: T2, Recombinant human glypican-3 (aa …); test: SPR, 37 C
Description: as §1, §2

[7] = target: T3, Recombinant murine glypican-3 (aa …); test: SPR, 37 C
Description: as §1, §2

[8] = target: T1, Human glypican-3 on cells (Huh7, Hep3B, …); test: cell-based or functional assay; remark: listed apart in the source
[9] = target: T1, Human glypican-3 on cells (Huh7, Hep3B, …); test: flow cytometry on Huh7 cells, unconjugated protein; Huh7 cells; unconjugated protein
Description: The binding of DG variants to huGPC3 in DG GPC3 AdxDCs mutants were evaluated by flow cytometry for binding to Huh7 carcinoma cells grown in DMEM media with 10% FBS. Cells were harvested using Versene, an EDTA cell dissociation solution from Lonza, Cat. #17-711E. Tumor cells (1E5 cells/reaction) were suspended in FACS buffer (PBS, 1% BSA, 0.05% Na Azide) and mixed with a serial dilution of AdxDC for one hour on ice. Cells were washed three times with FACS buffer, and bound AdxDC was detected with an in house anti-scaffold monoclonal Ab and PE-conjugated Antibody from (RnD Systems), cat #NL007, and read on a flow cytometer.

[10] = target: T2, Recombinant human glypican-3 (aa …); test: SPR, as in the previous Examples
Description: as §1, §2
(§3) FITC Labeling: ADX_6077_F02 and non-binding control Adnectin were reduced with DTT or TCEP followed by G25 gel filtration chromatography or dialysis. Excess Fluorescein-5-maleimide reagent (Thermo Scientific) was then added and the mixture incubated at room temperature for approximately 2 hours followed by G25 gel filtration chromatography or extensive dialysis (3-4 buffer changes). The resulting degree of labeling was measured by absorbance following the manufacturer's instructions and/or by mass spectrometry. The binding affinities of FITC-labeled and PEGylated […] for human and murine GPC3 was evaluated as described in the previous Examples, and the results are summarized in Table 13.

[11] = target: T3, Recombinant murine glypican-3 (aa …); test: SPR, as in the previous Examples
Description: as §1, §2, §3

[12] = target: T1, Human glypican-3 on cells (Huh7, Hep3B, …); test: flow cytometry on Huh7 cells, alkylated Adnectin
[13] = target: T2, Recombinant human glypican-3 (aa …); test: SPR, Biacore T100, GPC3-His immobilised, 1:1 fit
Description: (§4) The binding affinities of the alkylated GPC3 DG mutant adnectins for human and murine GPC3 were further evaluated by Biacore T100 using HBS-P+ running buffer with direct immobilization of human and mouse GPC3 proteins [Hu (Fc 2,3) and Mu (Fc 4) GPC3-His (R&D Systems)] with a 200-1.56 nM series injected for 180s association, 600s dissociation.

[14] = target: T3, Recombinant murine glypican-3 (aa …); test: SPR, Biacore T100, GPC3-His immobilised, 1:1 fit
Description: as §4

[15] = target: T2, Recombinant human glypican-3 (aa …); test: SPR
[16] = target: T1, Human glypican-3 on cells (Huh7, Hep3B, …); test: staining of Hep3B xenograft tissue

T2 sequence (P51654 other isoform, or with tags, fused parts or gaps): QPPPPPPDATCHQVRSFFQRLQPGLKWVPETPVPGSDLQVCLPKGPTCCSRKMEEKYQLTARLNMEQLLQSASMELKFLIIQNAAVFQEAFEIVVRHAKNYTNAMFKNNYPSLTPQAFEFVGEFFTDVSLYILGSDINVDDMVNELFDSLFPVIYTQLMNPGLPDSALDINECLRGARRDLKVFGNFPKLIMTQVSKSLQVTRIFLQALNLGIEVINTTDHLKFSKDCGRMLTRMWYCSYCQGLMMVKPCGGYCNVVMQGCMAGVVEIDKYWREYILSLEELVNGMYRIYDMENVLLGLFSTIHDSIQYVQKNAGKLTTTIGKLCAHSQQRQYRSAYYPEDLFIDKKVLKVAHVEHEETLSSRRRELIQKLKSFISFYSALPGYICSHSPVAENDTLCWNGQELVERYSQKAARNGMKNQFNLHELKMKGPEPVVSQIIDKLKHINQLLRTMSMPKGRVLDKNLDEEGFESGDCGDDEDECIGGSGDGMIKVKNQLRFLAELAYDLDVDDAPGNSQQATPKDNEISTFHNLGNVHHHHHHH
T1 sequence (P51654 25-554 limits assumed): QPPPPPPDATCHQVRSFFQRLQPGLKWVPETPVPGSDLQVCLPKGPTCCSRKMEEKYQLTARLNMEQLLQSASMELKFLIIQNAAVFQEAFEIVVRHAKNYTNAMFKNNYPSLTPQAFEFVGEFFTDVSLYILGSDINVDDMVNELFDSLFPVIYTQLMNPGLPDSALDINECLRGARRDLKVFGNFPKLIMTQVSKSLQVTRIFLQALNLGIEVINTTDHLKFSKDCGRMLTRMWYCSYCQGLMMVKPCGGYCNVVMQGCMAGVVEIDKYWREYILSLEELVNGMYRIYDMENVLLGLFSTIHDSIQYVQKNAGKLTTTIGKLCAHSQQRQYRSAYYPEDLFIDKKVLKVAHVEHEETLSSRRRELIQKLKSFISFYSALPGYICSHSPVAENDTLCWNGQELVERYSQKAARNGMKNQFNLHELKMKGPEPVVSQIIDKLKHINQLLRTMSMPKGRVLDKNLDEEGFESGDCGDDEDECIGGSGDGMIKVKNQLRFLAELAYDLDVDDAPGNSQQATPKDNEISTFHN

B1: ADX_6077_F02 DAR1 AdxDC (GPC3-tubulysin Adnectin drug conjugate) (designed binder)
chain: MGVSDVPRDLEVVAATPTSLLISWSDDYHAHRYYRITYGETGGNSPVQEFTVPGEHVTATISGLKPGVDYTITVYAVTYDGEKAATDWSISINYRTPCHHHHHH
modifications: tubulysin analog-linker (formula IV) conjugated through its maleimide to the C-terminal cysteine (DAR1)
notes: also called GPC3 AdxDC DAR1; ADX_6077_F02-961
AdxDC cell-killing IC50 [1]: 0.2 nM
Kd [2]: 12 nM
koff [2]: 0.00098 s⁻¹
Kd [3]: 11 nM
koff [3]: 0.00077 s⁻¹

B2: ADX_6093_A01 DAR1 AdxDC (non-binding control) (designed binder)
chain: MGVSDVPRDLEVVAATPTSLLISWDAPAVTVRYYRITYGETGGNSPVQEFTVPGSKSTATISGLKPGVDYTITVYAVTGRGESPASSKPISINYRTPCHHHHHH
modifications: tubulysin analog-linker (formula IV) on the C-terminal cysteine (DAR1)
notes: Control 10Fn3 with RGE in place of RGD; also called RGE AdxDC
AdxDC cell-killing IC50 [1]: > 25 nM
binding result [4]: no binding
binding result [5]: no binding (tested: about 30 nM)

B3: GPC3_AdxDC DA variant-DAR1 (designed binder)
chain: GVSDVPRDLEVVAATPTSLLISWSDDYHAHRYYRITYGETGGNSPVQEFTVPGEHVTATISGLKPGVDYTITVYAVTYDAEKAATDWSISINYRTPC
modifications: tubulysin analog-linker conjugated to the C-terminal cysteine (DAR1)
notes: also called DA variant AdxDC DAR1; GPC3_AdxDC (DA) DAR1
Kd [6]: 25 nM
koff [6]: 0.0021 s⁻¹
Kd [7]: 23 nM
koff [7]: 0.00095 s⁻¹
Cell-killing IC50 (Huh7) [8]: 0.2 nM

B4: DA variant of ADX_6077_F02, unconjugated protein (designed binder)
chain: GVSDVPRDLEVVAATPTSLLISWSDDYHAHRYYRITYGETGGNSPVQEFTVPGEHVTATISGLKPGVDYTITVYAVTYDAEKAATDWSISINYRTPC
notes: also called DA variant, unconjugated
EC50 [9]: 2.2 nM

B5: ADX_6077_F02 alkylated (designed binder)
chain: MGVSDVPRDLEVVAATPTSLLISWSDDYHAHRYYRITYGETGGNSPVQEFTVPGEHVTATISGLKPGVDYTITVYAVTYDGEKAATDWSISINYRTPCHHHHHH
modifications: C-terminal cysteine (of PC) alkylated with iodoacetamide
notes: also called alkylated (capped) Adnectin; alkylated parent
Kd [10]: 5.88 nM
koff [10]: 0.000524 s⁻¹
kon [10]: 89000 M⁻¹ s⁻¹
Kd [11]: 3.69 nM
koff [11]: 0.000453 s⁻¹
kon [11]: 123000 M⁻¹ s⁻¹
EC50 [12]: 5 nM
Fold affinity (KD) difference vs alkylated parent [13]: 1 fold
Kd [13]: 5.6 nM
koff [13]: 0.000534 s⁻¹
kon [13]: 95300 M⁻¹ s⁻¹
Fold affinity (KD) difference vs alkylated parent [14]: 1 fold
Kd [14]: 3.8 nM
koff [14]: 0.00049 s⁻¹
kon [14]: 130000 M⁻¹ s⁻¹

B6: ADX_6093_A01 alkylated (non-binding control) (designed binder)
chain: MGVSDVPRDLEVVAATPTSLLISWDAPAVTVRYYRITYGETGGNSPVQEFTVPGSKSTATISGLKPGVDYTITVYAVTGRGESPASSKPISINYRTPCHHHHHH
modifications: C-terminal cysteine alkylated with iodoacetamide
EC50 [12]: > 200 nM

B7: RGE-FITC (designed binder)
chain: MGVSDVPRDLEVVAATPTSLLISWDAPAVTVRYYRITYGETGGNSPVQEFTVPGSKSTATISGLKPGVDYTITVYAVTGRGESPASSKPISINYRTPCHHHHHH
modifications: fluorescein-5-maleimide on the C-terminal cysteine
binding result [15]: no binding
binding result [16]: no binding (tested: 0.2 µg/ml)
